Source: IntAct's records for PubMed 22536782

B1: GRB2-associated-binding protein 1 (Homo sapiens), Q13480 (parent)
chain: MSGGEVVCSGWLRKSPPEKKLKRYAWKRRWFVLRSGRLTGDPDVLEYYKNDHAKKPIRIIDLNLCQQVDAGLTFNKKEFENSYIFDINTIDRIFYLVADSEEEMNKWVRCICDICGFNPTEEDPVKPPGSSLQAPADLPLAINTAPPSTQADSSSATLPPPYQLINVPPHLETLGIQEDPQDYLLLINCQSKKPEPTRTHADSAKSTSSETDCNDNVPSHKNPASSQSKHGMNGFFQQQMIYDSPPSRAPSASVDSSLYNLPRSYSHDVLPKVSPSSTEADGELYVFNTPSGTSSVETQMRHVSISYDIPPTPGNTYQIPRTFPEGTLGQTSKLDTIPDIPPPRPPKPHPAHDRSPVETCSIPRTASDTDSSYCIPTAGMSPSRSNTISTVDLNKLRKDASSQDCYDIPRAFPSDRSSSLEGFHNHFKVKNVLTVGSVSSEELDENYVPMNPNSPPRQHSSSFTEPIQEANYVPMTPGTFDFSSFGMQVPPPAHMGFRSSPKTPPRRPVPVADCEPPPVDRNLKPDRKVKPAPLEIKPLPEWEELQAPVRSPITRSFARDSSRFPMSPRPDSVHSTTSSSDSHDSEENYVPMNPNLSSEDPNLFGSNSLDGGSSPMIKPKGDKQVEYLDLDLDSGKSTPPRKQKSSGSGSSVADERVDYVVVDQQKTLALKSTREAWTDGRQSTESETPAKSVK

Variants of: B1
Details: with grb2_human GRB2, P62993

| effect of a mutation on the interaction | Variant |
| --- | --- |
| increasing interaction | R344A |
| increasing interaction | P346A |
| increasing interaction | P345A |
| increasing interaction | K347A |

Variants of: B1
Details: with grb2_human GRB2, P62993
Remark: another data set of the same source

| effect of a mutation on the interaction | Variant |
| --- | --- |
| decreasing interaction | N522A |
| decreasing interaction | L523A |
| decreasing interaction | R521A |
| decreasing interaction | K524A |
